Measured values: the supplement of paper PMC10567573
± gives the standard deviation.

Test: protein stability index of a GFP-peptide fusion (GPS, HEK-293T) (PSI 1-6); higher = more stable
[1] = treatment: DMSO, c terminus: a fixed tail appended
[2] = treatment: MLN4924 1 uM, 8 h, c terminus: a fixed tail appended
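Further: 24-mer peptide tiles fused after GFP, lentivirally expressed, FACS-sorted into six equal bins by GFP/DsRed ratio, decoded by Illumina sequencing, PSI is the read-weighted mean bin number.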

Sequence	protein stability index [1]	protein stability index [2]	protein stability index (treatment: DMSO, c terminus: native)	protein stability index (treatment: MLN4924 1 uM, 8 h, c terminus: native)
LPMATVDIKNPEITTNRFYGPQVN [WASL]	3.4 ± 0.75	3.54 ± 0.34		
LPRKRQSLRSSSSKLAQLTLEQIL [INTS3]	2.34 ± 0.19	2.44 ± 0.12		
LPSHPLELSEKNFQLNQDKMNFST [POMP]	3.84 ± 0.29	3.78 ± 0.21		
LPVETLGPASRMDPESERALQAPH [PBXIP1]	4.58 ± 0.43	4.84 ± 0.33		
LQAKALQLIVTARTTRGLDPLFGM [INTS4]	2.88 ± 0.6	2.59 ± 0.66		
LQLLREENRALQQLLEQKQAYWAQ [CBY2]	2.62 ± 0.18	2.94 ± 0.31		
LQRLGELQSELAGVADFSATYLRC [INTS4]	2.72 ± 0.22	2.93 ± 0.34		
LQSTYATPVDMWSVGCIFAEMFRR [CDK4]	2.32 ± 0.42	2.37 ± 0.41		
LRDHADSNIVIMLVGNKSDLRHLR [RAB11A]	2.36 ± 0.24	2.18 ± 0.38		
LREKLLEAEQSLRNLEDIHMSLEK [TEKT4]	3.03 ± 0.52	3.3 ± 0.63		
LRKAVLKNLYKLASQCCGVHVISL [PTGFR]	2.79 ± 0.5	2.73 ± 0.99		
LRQLRELEEQFALEAGGYQAGAAR [PRPH]	4.07 ± 0.3	4.24 ± 0.084		
LRSFEGLMGTIKSKVSGGKRAWP [TPD52L3]			2.94 ± 0.91	3.63 ± 0.26
LSATIGSILRELDTSMDGTEPPQN [SERTAD3]	4.1 ± 0.15	4.26 ± 0.33		
LSIQLQPKETQPFPKSEQVYLHFL [ZNF232]	2.4 ± 0.25	2.52 ± 0.35		
LSLVLGNVNVTLLSKQAKFAYKDE [TMEM120A]	2.59 ± 0.53	2.23 ± 0.28		
LSTKKSPCAGSTSLSHSPGCSSTQ [LCOR]	4.35 ± 0.22	4.27 ± 0.12		
LSVRSVFFGVFQSFVVLLYILDNE [CLPTM1]	3.19 ± 0.75	2.92 ± 0.55		
LTAKQLIKSIVEASKGCQLGKTEQ [TRIM63]	2.57 ± 0.18	2.38 ± 0.6		
LTALLEKYTPSNKHGFSWAVPKFM [DLC1]	2.6 ± 0.57	2.09 ± 0.2		
LTISPKAARVGLLQYSTQVHTEFT [MATN2]		2.436 ± 0.019		
LTMTFPAGIVRVFSGTPPPPVLSF [FCHO1]	2.92 ± 0.5	3.13 ± 0.54		
LTNNVDLDNTKKKMEIYQKENKDV [MNAT1]	5.34 ± 0.3	5.31 ± 0.19		

Sequence	protein stability index [1]	protein stability index [2]	protein stability index (treatment: DMSO, c terminus: native)	protein stability index (treatment: MLN4924 1 uM, 8 h, c terminus: native)
LTRKGLVRVVFFPLFSNWWIQVTS [PHTF1]	3.06 ± 0.039	2.81 ± 0.71		
LVAEILPAPGKLLGPCVVGYGIYY [SAT2]	2.66 ± 0.94	2.53 ± 0.44		
LVDVRQEQLQGFNTRVRELAQAAG [DNAAF3]	3.67 ± 0.55	3.67 ± 0.29		
LVGIFILAVSRPRSSPDDLKALTR [SCARA5]	2.84 ± 0.39	2.84 ± 0.69		
LVKKLQDSVLERWVNDPQRMDKRT [GOLPH3L]	2.69 ± 0.14	2.93 ± 0.29		
LVLSEDRKSVRYTRQKKNLPDSPL [TRIM15]	3.48 ± 0.33	3.77 ± 0.15		
LVNTSENLSKSRKILRSMSRKVTT [VTI1B]	3.33 ± 0.29	3.57 ± 0.22		
LVQLPNINRVSTCYSEEITVCGDL [PPEF2]	2.42 ± 0.42	2.65 ± 0.44		
LVSLTSRNPDQRKESLCISITVSK [FBXO34]	2.26 ± 0.1	2.47 ± 0.15		
LVTGLAIEEACYAQTIPTKDRLEG [AUH]	3.02 ± 0.34	3.13 ± 0.27		
LVTTGANVNETDDWGRTALHYAAA [ANKRD44]	3.34 ± 0.26	3.52 ± 0.15		
LVVMAPSPSESSETVLALVNCISP [DENND6A]	2.4 ± 0.32	2.15 ± 0.19		
LWWIAPGDETAHRIDSQFLIGDTL [MYORG]	1.95 ± 0.23	2.06 ± 0.43		
MACHRCLVYLGDLSRYQNELAGVD [SMG5]	2.64 ± 0.7	2.54 ± 0.55		
MAVLEEIQQELIKQEQSIISEYEK [RPAIN]	4.28 ± 0.16	4.47 ± 0.16		
MCMVMRGVQKMNSKTVTSTMLGVF [GCH1]	2.31 ± 0.43	2.56 ± 0.44		
MDGRWQCSCWAWFLLVLAVVAGDT [ADAMTSL2]	2.62 ± 1	2.45 ± 0.52		
MEDSPLPDLRDIELKLGRKVPESL [LURAP1L]	4.68 ± 0.2	4.63 ± 0.23		
MEHQLLCCEVETIRRAYPDANLLN [CCND1]	2.86 ± 0.24	2.87 ± 0.28		
MELLCHEVDPVRRAVRDRNLLRDD [CCND2]	4.28 ± 0.34	4.5 ± 0.12		
MENLPGLASGPGKYMPHLCQDSSG	4.05 ± 0.067	3.93 ± 0.12		
METSAPRAGSQVVATTARHSAAYR [FUNDC2]	4.5 ± 0.19	4.2 ± 0.11		
